Source: article PMC10665462

Biological target: BTN3A1 full intracellular domain (human)
Assay: ITC; nanoITC; 300 μM BTN2A1 ID271 titrated into a mixture of 60 μM BTN3A1 BFI and 120 μM 4-M-HMBPP; independent fit (NanoAnalyze)

**Q.** “BTN2A1 intracellular domain (domain or fragment)” was tested. Which KD with 4-M-HMBPP did it give?
**A.** 190 µM

**Q.** And the N with 4-M-HMBPP?
**A.** 0.08

**Q.** What about the dH with 4-M-HMBPP of the same substance?
**A.** -23.9 kcal/mol
